Measured values as given in article PMC3936014 (Nature communications, 2014).
Like-named read-outs stand apart in the source and are kept apart here.

Key:
crystal structure = molecular target: the molecule itself; experiment: crystal structure
TFAM (mature) = molecular target: T1, TFAM (mature) (Homo sapiens, UniProt Q00059 43-246); experiment: FRET DNA bending
T1 sequence: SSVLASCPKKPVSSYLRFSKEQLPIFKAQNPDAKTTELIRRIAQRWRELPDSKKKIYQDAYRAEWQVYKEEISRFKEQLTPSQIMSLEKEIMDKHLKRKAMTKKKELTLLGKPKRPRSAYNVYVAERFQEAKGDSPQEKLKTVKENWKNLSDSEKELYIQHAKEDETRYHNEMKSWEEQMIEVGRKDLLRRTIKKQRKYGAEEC

TFAM (43-237) [1] = molecular target: T2, TFAM (43-237) (Homo sapiens, UniProt Q00059 43-237); experiment: X-ray crystallography
T2 sequence: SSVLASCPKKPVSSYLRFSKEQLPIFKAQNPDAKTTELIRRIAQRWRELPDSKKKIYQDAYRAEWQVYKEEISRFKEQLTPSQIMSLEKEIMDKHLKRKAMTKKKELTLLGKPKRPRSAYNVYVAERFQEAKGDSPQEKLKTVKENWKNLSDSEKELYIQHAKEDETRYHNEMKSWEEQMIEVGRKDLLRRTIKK

TFAM (43-237) [2] = molecular target: T2, TFAM (43-237); experiment: X-ray crystallography; remark: listed apart in the source
TFAM (43-237) [3] = molecular target: T2, TFAM (43-237); experiment: X-ray crystallography; remark: listed apart in the source

B1: TFAM (transcription factor A, mitochondrial) lacking the last 9 residues (43-237) (domain or fragment, human, UniProt Q00059 43-237, looked up)
chain: SSVLASCPKKPVSSYLRFSKEQLPIFKAQNPDAKTTELIRRIAQRWRELPDSKKKIYQDAYRAEWQVYKEEISRFKEQLTPSQIMSLEKEIMDKHLKRKAMTKKKELTLLGKPKRPRSAYNVYVAERFQEAKGDSPQEKLKTVKENWKNLSDSEKELYIQHAKEDETRYHNEMKSWEEQMIEVGRKDLLRRTIKK
Crystal structure
  binding result: binds

B2: HSP1 22 bp FRET (dsDNA)
DNA 1: GGTTGGTTCGGGGTATGGGGTT
DNA 2: AACCCCATACCCCGAACCAACC
TFAM (mature)
  binding result: binds

B3: HSP1-Br 22 bp (dsDNA)
DNA 1: GGTTGGTTCGGGGTATGGGGTT
DNA 2: AACCCCATACCCCGAACCAACC
modifications: 5-bromo-dU replacing T at strand 1 position 4 (mtDNA 550)
TFAM (43-237) [1]
  binding result: binds

B4: nonspecific 22 bp (ATPase6) (dsDNA)
DNA 1: ATTCAACCAATAGCCCTGGCCG
DNA 2: CGGCCAGGGCTATTGGTTGAAT
TFAM (43-237) [2]
  binding result: binds

B5: nonspecific 22 bp FRET (dsDNA)
DNA 1: ATTCAACCAATAGCCCTGGCCG
DNA 2: CGGCCAGGGCTATTGGTTGAAT
TFAM (mature)
  binding result: binds

B6: LSP 28 bp FRET (dsDNA)
DNA 1: TGTTAGTTGGGGGGTGACTGTTAAAAGT
DNA 2: ACTTTTAACAGTCACCCCCCAACTAACA
TFAM (mature)
  binding result: binds

B7: HSP1 22 bp (dsDNA)
DNA 1: GGTTGGTTCGGGGTATGGGGTT
DNA 2: AACCCCATACCCCGAACCAACC
TFAM (43-237) [3]
  binding result: binds
